{"source": "paper PMC10927774", "about": "“Mechanistic and biophysical characterization of polymyxin resistance response regulator PmrA in Acinetobacter baumannii” (Frontiers in Microbiology, 2024)", "target": "the molecule itself", "test": "SEC; full-length PmrA incubated with BeF3- and Mg2+ (5.3 mM BeSO4, 35 mM NaF, 7 mM MgCl2) to mimic phosphorylation; 25 mM Tris pH 8.0, 150 mM NaCl, 5% glycerol", "data": [{"protein": "Acinetobacter baumannii PmrA full length (natural protein, Response regulator PmrA of A. baumannii, UniProt E2FGC2; full length, printed as residues 1–244 in the methods, while the introduction places the DBD at 129–223; Cloned in pET28a; In one SEC run it was incubated with BeF3- and Mg2+ (aspartate phosphorylation mimic); this is treated as a condition of the assay, not as another molecule; also called PmrA FL; full-length PmrA; source: E. coli BL21 …) MTKILMIEDDFMIAESTITLLQYHQFEVEWVNNGLDGLAQLAKTKFDLILLDLGLPMMDGMQVLKQIRQRAATPVLIISARDQLQNRVDGLNLGADDYLIKPYEFDELLARIHALLRRSGVEAQLASQDQLLESGDLVLNVEQHIATFKGQRIDLSNREWAILIPLMTHPNKIFSKANLEDKLYDFDSDVTSNTIEVYVHHLRAKLGKDFIRTIRGLGYRLGQS", "values": [{"measurement": "stoichiometry N", "result": 2}]}]}
